Measurements taken from patent US20190134064A1, “SELECTIVELY DEGLYCOSYLATED VITAMIN D-BINDING PROTEIN (GCMAF), CHOLECALCIFEROL (CALCIOL), AND PRODUCTION METHOD” (HG PHARMA GMBH, priority 2016, published 2019).

Assays:
Peritoneal mouse cells = experiment: Phagocytosis activation (phagocytosis index, opsonized sheep red blood cells); format: cell-based; details: for phagocytic activity (comparison in words): compared with GcMAF-calcitriol or GcMAF alone; for Macrophage activity: phagocytosis index, three hours of drug treatment, opsonized SRBC cultured for 90 minutes, 250 macrophages counted
Description: Phagocytosis activation was determined as described by Hammarstrom S and Kabat EA in “Studies on specificity and binding properties of the blood group A reactive hemagglutinin from Helix pomatia”, Biochemistry 10: 1684-1692, 1971.
Peritoneal mouse cells were coated in a 24-well plate onto cover glasses. After three hours of drug treatment, the cultures were tested for phagocytic activity. Sheep red blood cells (SRBC) were opsonized using hemolytic rabbit serum (anti-sheep red blood C12HSB cells, Serotec Ltd. England). Opsonized SRBC (0.5%) in RPMI 1640 (serum-free) were layered onto each macrophage-coated cover glass and cultured for 90 minutes. The non-internalized erythrocytes were lyzed by immersing the cover glass in a hypotonic solution (⅕ PBS). The macrophages were fixed with methanol, air-dried, and Giemsa stained. The number of phagocytosed erythrocytes per cell was microscopically determined; 250 macrophages were counted for each data point. The data are expressed as a phagocytosis index, which is defined as the percentage of macrophages with engulfed erythrocytes multiplied by the average number of erythrocytes per macrophage.

[1] = system: receptor sites of the ELISA test; experiment: Binding to the receptor sites of the ELISA test for vitamin D; details: ELISA test selective for calcidiol
Description: The standard test for vitamin D in the blood, the ELISA test, is selective for calcidiol (which has an OH group at position 25). […] The same applies for the complex GcMAF-calcitriol.

[2] = system: monocytes from human whole blood; experiment: Formation of superoxide radical anions; format: cell-based; set-up: Superoxide activity: unit not given here; details: for Superoxide activity: test substance 50 pg/ml, 3 h incubation; for formation of superoxide radical anions (comparison in words): compared with the other substances tested
Description: Determination of the formation of superoxide radical anions in monocytes from human whole blood was carried out as follows:
Isolation of peripheral mononuclear cells is carried out by density gradient centrifugation from heparinized whole blood. The blood is diluted 1:2 with PBS (without Ca/Mg) and layered onto 15 ml of Histopaque-1077. After this, the cell suspension is centrifuged for 30 min at 700×g and 20° C. The interphase with the mononuclear cells is carefully removed with a Pasteur pipette, made up with 30 ml of PBS (without Ca/Mg), and centrifuged for 5 min at 350×g. The supernatant is decanted, and the cells are taken up in RPMI 1640 medium and counted in the flow cytometer. The cells are adjusted to 10^5 monocytes/ml. For the test batch, 1 ml of cell suspension is pipetted into each 5 ml tube. LPS 100 ng/ml is used as a control. The test substance (GcMAF, GcMAF-calciol or GcMAF-calcitriol) is used in a concentration of 50 pg/ml. The cells are incubated for a total of 3 h in the CO2 incubator. 15 min before the end of incubation, 5 μl each of CD45-V450 antibody and 1 μl of a 1 mM MitoSOX stock solution are added. After this, the cell suspension is made up with 2 ml each of RPMI medium and centrifuged for 5 min at 350×g at room temperature. The supernatant is decanted, and the cells are resuspended in 500 μl of RPMI medium. The cells are measured and analyzed in the flow cytometer. Evaluation is carried out based on the average fluorescence intensity, as described by Saharuddin Bin Mohamad, Hideko Nagasa Wa, Yoshihiro Uto, and Hitoshi Hori in “Preparation of Gc Protein-Derived Macrophage Activating Factor (GcMAF) and its Structural Characterization and Biological Activities”, Anticancer Research 22: 4297-4300 (2002).
Superoxide formation assay
The method used was a modified version of that described by Johnston et al. In brief, after three-hour treatment of the samples, the plates were washed twice with PBS (-) and once with Krebs-Ringer phosphate buffer, pH 7.4, 1.5 ml of 50 μM cytochrome C in Krebs-Ringer phosphate buffer was added, and phorbol myristate acetate (PMA) was added to a final concentration of 5 μg/ml in each well and cultured for 90 minutes in a moistened incubator.
The reaction was stopped using an ice bath. The cultured medium was placed in an Eppendorf tube and centrifuged at 8000 g. The optical density of the supernatant was spectrometrically determined at 550 nm with reference at 540 nm (U-2000, Hitachi) using mixtures of plates without cells as a blank measurement. The concentration of reduced cytochrome C was determined using the equation E550nm=[…].

monocytic cells = experiment: Monocytic cells after oral administration; format: in vivo
Toxicity = experiment: Toxicity
Description: (§1) The complex according to the invention can be orally administered. […] Moreover, the complex according to the invention is not toxic.

[3] = Vitamin D content in the blood after oral administration; format: in vivo
Description: as §1

Molecule | phagocytic activity (comparison in words) (Peritoneal mouse cells) | Macrophage activity (Peritoneal mouse cells) | binding to the receptor sites of the ELISA test [1] | Superoxide activity [2] | monocytic cells, subsequently converted into macrophages (monocytic cells) | toxicity (Toxicity) | vitamin D content in the blood ([3]; 12 h after oral administration, 35.9 nM before administration) [nM] | absorption in oral administration ([3]; oral administration) | formation of superoxide radical anions (comparison in words) [2] | formation of superoxide radical anions (comparison in words) ([2]; listed as complex according to the invention)
GcMAF-calcitriol: comparative complex; same production method carried out with calcitriol instead of cholecalciferol (protein, UniProt P02774 17-474, looked up, deglycosylated (GcMAF); complexed with calcitriol, comparative complex; same production method carried out with calcitriol instead of cholecalciferol) Vitamin D-binding protein: LERGRDYEKNKVCKEFSHLGKEDFTSLSLVLYSRKFPSGTFEQVSQLVKEVVSLTEACCAEGADPDCYDTRTSALSAKSCESNSPFPVHPGTAECCTKEGLERKLCMAALKHQPQEFPTYVEPTNDEICEAFRKDPKEYANQFMWEYSTNYGQAPLSLLVSYTKSYLSMVGSCCTSASPTVCFLKERLQLKHLSLLTTLSNRVCSQYAAYGEKKSRLSNLIKLAQKVPTADLEDVLPLAEDITNILSKCCESASEDCMAKELPEHTVKLCDNLSTKNSKFEDCCQEKTAMDVFVCTYFMPAAQLPELPDVELPTNKDVCDPGNTKVMDKYTFELSRRTHLPEVFLSKVLEPTLKSLGECCDVEDSTTCFNAKGPLLKKELSSFIDKGQELCADYSENTFTEYKKKLAERLKAKLPDATPTELAKLVNKHSDFASNCCSINSPPLYCDSEIDAELKNIL | virtually identical to the phagocytic activity of GcMAF alone | 73.2 | does not bind | 188 |  |  |  |  |  | 
GcMAF-calciol: dimeric complex of a selectively deglycosylated vitamin D-binding protein (GcMAF) and cholecalciferol (calciol) (protein, UniProt P02774 17-474, looked up, deglycosylated (GcMAF); complexed with cholecalciferol) Vitamin D-binding protein: LERGRDYEKNKVCKEFSHLGKEDFTSLSLVLYSRKFPSGTFEQVSQLVKEVVSLTEACCAEGADPDCYDTRTSALSAKSCESNSPFPVHPGTAECCTKEGLERKLCMAALKHQPQEFPTYVEPTNDEICEAFRKDPKEYANQFMWEYSTNYGQAPLSLLVSYTKSYLSMVGSCCTSASPTVCFLKERLQLKHLSLLTTLSNRVCSQYAAYGEKKSRLSNLIKLAQKVPTADLEDVLPLAEDITNILSKCCESASEDCMAKELPEHTVKLCDNLSTKNSKFEDCCQEKTAMDVFVCTYFMPAAQLPELPDVELPTNKDVCDPGNTKVMDKYTFELSRRTHLPEVFLSKVLEPTLKSLGECCDVEDSTTCFNAKGPLLKKELSSFIDKGQELCADYSENTFTEYKKKLAERLKAKLPDATPTELAKLVNKHSDFASNCCSINSPPLYCDSEIDAELKNIL | significantly higher | 83.5 | does indeed bind | 142 | significant increase | not toxic | 44.25 | absorbed by the body in oral administration | lower | lowest of all of the substances tested
GcMAF, purchased from Metavectrum, Germany: GcMAF purchased from Metavectrum, Germany (protein, UniProt P02774 17-474, looked up, selectively deglycosylated (GcMAF)) Vitamin D-binding protein: LERGRDYEKNKVCKEFSHLGKEDFTSLSLVLYSRKFPSGTFEQVSQLVKEVVSLTEACCAEGADPDCYDTRTSALSAKSCESNSPFPVHPGTAECCTKEGLERKLCMAALKHQPQEFPTYVEPTNDEICEAFRKDPKEYANQFMWEYSTNYGQAPLSLLVSYTKSYLSMVGSCCTSASPTVCFLKERLQLKHLSLLTTLSNRVCSQYAAYGEKKSRLSNLIKLAQKVPTADLEDVLPLAEDITNILSKCCESASEDCMAKELPEHTVKLCDNLSTKNSKFEDCCQEKTAMDVFVCTYFMPAAQLPELPDVELPTNKDVCDPGNTKVMDKYTFELSRRTHLPEVFLSKVLEPTLKSLGECCDVEDSTTCFNAKGPLLKKELSSFIDKGQELCADYSENTFTEYKKKLAERLKAKLPDATPTELAKLVNKHSDFASNCCSINSPPLYCDSEIDAELKNIL |  | 68 |  | 150 |  |  |  |  |  | 
Gc-calcidiol: complex of vitamin D-binding protein (Gc) and calcidiol (protein, UniProt P02774 17-474, looked up, complexed with calcidiol) Vitamin D-binding protein: LERGRDYEKNKVCKEFSHLGKEDFTSLSLVLYSRKFPSGTFEQVSQLVKEVVSLTEACCAEGADPDCYDTRTSALSAKSCESNSPFPVHPGTAECCTKEGLERKLCMAALKHQPQEFPTYVEPTNDEICEAFRKDPKEYANQFMWEYSTNYGQAPLSLLVSYTKSYLSMVGSCCTSASPTVCFLKERLQLKHLSLLTTLSNRVCSQYAAYGEKKSRLSNLIKLAQKVPTADLEDVLPLAEDITNILSKCCESASEDCMAKELPEHTVKLCDNLSTKNSKFEDCCQEKTAMDVFVCTYFMPAAQLPELPDVELPTNKDVCDPGNTKVMDKYTFELSRRTHLPEVFLSKVLEPTLKSLGECCDVEDSTTCFNAKGPLLKKELSSFIDKGQELCADYSENTFTEYKKKLAERLKAKLPDATPTELAKLVNKHSDFASNCCSINSPPLYCDSEIDAELKNIL |  |  | does not bind |  |  |  |  |  |  | 
GcMAF, produced as described: selectively deglycosylated vitamin D-binding protein, self-produced, with final filtration via a 100,000 Da filter (protein, UniProt P02774 17-474, looked up, selectively deglycosylated (GcMAF)) Vitamin D-binding protein: LERGRDYEKNKVCKEFSHLGKEDFTSLSLVLYSRKFPSGTFEQVSQLVKEVVSLTEACCAEGADPDCYDTRTSALSAKSCESNSPFPVHPGTAECCTKEGLERKLCMAALKHQPQEFPTYVEPTNDEICEAFRKDPKEYANQFMWEYSTNYGQAPLSLLVSYTKSYLSMVGSCCTSASPTVCFLKERLQLKHLSLLTTLSNRVCSQYAAYGEKKSRLSNLIKLAQKVPTADLEDVLPLAEDITNILSKCCESASEDCMAKELPEHTVKLCDNLSTKNSKFEDCCQEKTAMDVFVCTYFMPAAQLPELPDVELPTNKDVCDPGNTKVMDKYTFELSRRTHLPEVFLSKVLEPTLKSLGECCDVEDSTTCFNAKGPLLKKELSSFIDKGQELCADYSENTFTEYKKKLAERLKAKLPDATPTELAKLVNKHSDFASNCCSINSPPLYCDSEIDAELKNIL |  | 73.0 |  | 199 |  |  |  |  |  | 
